One block for each molecule: values may come before it.
Key:
[1] = test system: primary TMZ-resistant glioblastoma stem cells (GSC-R); assay: MTT viability of chemo-resistant cells; conditions: Homo sapiens, Glioblastoma stem cell, 96 h, read-out: percent survival / viability
Procedure: In detail, GSCs and U87 parental cell line, which are sensitive to TMZ, were first maintained in low doses of TMZ (25 μM) and then successively exposed for two months to incremental doses of 25 μM of TMZ each time (up to 500 μM). After the killing of a majority of the cells, the surviving cells were maintained until a normal rate of growth were obtained. […] Cell viability was assessed by 3-(4,5-Dimethylthiazol-2-yl)-2,5-Diphenyl-tetrazoliumBromide (MTT) assay, as a function of redox potential (FIG. 24). Cells (5×10^3/well) were seeded and cultured in 96-well plate for 24 h in Basal Medium (BM). Then, culture media were replaced with fresh media containing the specific treatments, or in BM as a control condition (CTR).
Test was performed in triplicate after 96 h of treatment, by replacing culture media with 100 μL of fresh media added with 10 μL of MTT 5 mg/ml in D-PBS. After 4 h of incubation, media were removed and cells were lysed with 100 μL of 2-propanol/formic acid (95:5, by vol) for 10 min. Then, absorbance was read at 570 nm in microplate reader.

[2] = target: T1, EphB4 (Homo sapiens, UniProt P54760); conditions: Epo for EphB4; cited from earlier work
T1 sequence (P54760 16-987): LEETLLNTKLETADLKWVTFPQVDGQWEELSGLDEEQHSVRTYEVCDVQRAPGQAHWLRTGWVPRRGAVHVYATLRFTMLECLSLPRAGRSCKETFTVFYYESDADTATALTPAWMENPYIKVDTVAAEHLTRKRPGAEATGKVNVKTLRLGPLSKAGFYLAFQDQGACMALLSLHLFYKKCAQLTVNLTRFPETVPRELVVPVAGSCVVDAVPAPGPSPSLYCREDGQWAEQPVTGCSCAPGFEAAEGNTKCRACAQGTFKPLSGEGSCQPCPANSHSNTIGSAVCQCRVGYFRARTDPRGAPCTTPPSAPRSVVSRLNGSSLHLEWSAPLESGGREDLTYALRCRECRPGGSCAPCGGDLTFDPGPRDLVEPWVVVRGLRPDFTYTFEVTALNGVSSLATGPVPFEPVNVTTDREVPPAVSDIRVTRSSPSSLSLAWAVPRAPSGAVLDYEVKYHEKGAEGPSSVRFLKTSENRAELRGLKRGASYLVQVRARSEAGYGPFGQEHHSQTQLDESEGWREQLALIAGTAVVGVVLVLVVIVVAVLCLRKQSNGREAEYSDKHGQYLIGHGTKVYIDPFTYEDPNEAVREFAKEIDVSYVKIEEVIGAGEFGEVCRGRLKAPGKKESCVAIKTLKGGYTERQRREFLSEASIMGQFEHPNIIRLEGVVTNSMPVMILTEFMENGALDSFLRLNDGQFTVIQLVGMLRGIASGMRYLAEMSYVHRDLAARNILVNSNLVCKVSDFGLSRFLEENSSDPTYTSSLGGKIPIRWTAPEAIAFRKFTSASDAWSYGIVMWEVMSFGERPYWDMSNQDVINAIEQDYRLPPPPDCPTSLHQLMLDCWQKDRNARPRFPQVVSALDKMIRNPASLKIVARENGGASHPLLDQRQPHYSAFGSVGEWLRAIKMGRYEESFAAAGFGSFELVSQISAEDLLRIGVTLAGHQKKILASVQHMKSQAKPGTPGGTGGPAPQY

[3] = target: T2, murine EPO (murine, UniProt P07321 27-192, limits assumed); assay: SPR (ProteOn XPR36), anti-EPO (C4) immobilized by amine coupling, EPO as analyte; murine EPO
T2 construct: also called mEPO; m-EPO
T2 sequence (looked up): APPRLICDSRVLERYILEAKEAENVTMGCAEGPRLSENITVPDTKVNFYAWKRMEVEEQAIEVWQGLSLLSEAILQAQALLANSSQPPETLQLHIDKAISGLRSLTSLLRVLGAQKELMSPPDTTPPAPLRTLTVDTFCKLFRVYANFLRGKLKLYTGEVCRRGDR

[4] = target: T2, murine EPO; assay: SPR (ProteOn XPR36), anti-EPO (C4) immobilized by amine coupling, EPO as analyte; murine EPO; fitted value

Molecule: Cn1nnc2c(C(N)=O)ncn2c1=O [TMZ, Temozolomide]
viability at 100 µM [1]: ~93%

Molecule: Epo: 30.4 kDa glycoprotein, main erythropoietic hormone
Kd [2]: 880 nM

koff [3]: 0.000669 s⁻¹
kon [3]: 663 M⁻¹ s⁻¹
Kd [4]: 1010 nM
B1: anti-EPO (C4) monoclonal antibody (antibody, V domains shown)
VH: EVKLQESGGGLVQPGGSLKLSCAASGFTFSTYTMSWVRQTPEKRLEWVAYISNGGDRTYYPDTVKGRFTISRDDAKNTLFLQMSSLKSEDTAMYYCARHNITTVPFTMDYWGQGTSVTVSS
VL: DIVLTQSPASLAVSLGQRATISCRASESVDYYGTGLMQWYQQRPGQPPKLLIYGASNVGSGVPARFSGSGSGTDFSLNIHPVEGDDIAMYFCQQTRKVPSTFGGGTKLEIK
notes: also called C4 antibody; anti-EPO (C4) mAB
